Laboratory results published in the supplement of paper PMC12042874.
± gives the uncertainty stated by the source.

Experiment: amyloid nucleation score (Sup35N fusion, yeast selection) (log enrichment); library NNK3; higher = more nucleation; inactive = no reads after selection
Summary of the method: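 On medium lacking adenine and uracil, psi-negative yeast expressing peptides of 20 random codons fused to Sup35N were grown 7 days at 30°C after a 24-hour induction with 100 μM copper sulfate. Illumina sequencing of input and output plasmid inserts gave the reads, and sequences under 100 input reads were excluded. The nucleation score is the DiMSum log enrichment of output over input reads, centred on the mode score of non-aggregating sequences.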

Substance | amyloid nucleation score
VENRYVIINSRVMGD | inactive
VASCMTGWLILDETMSSFKL | -0.746 ± 0.98
WWIARIRMHGCCDVYLGQHR | 2.6 ± 0.087
KDMIYSHDKLKFQKKNKHMQ | inactive
SSVSSMRRSHYETMMGRTVG | inactive
LWDWVYFAYDRVYLVLCSSC | inactive
HFMMYMLQRVHELFILSKSM | inactive
NGKLVFCWDKFIYVYRLTWW | inactive
PSQAFS | inactive
FIDFGIWC | inactive
DRISSNDMCGWESGVISIHD | inactive
EKDMFQNVLLVKAYD | inactive
LAFCIMNRQFLPLYLPTCSV | inactive
TLYWFHTGICAYRMWTSVFF | inactive
LLSPEEGGLKSECRRWSGAL | inactive
RGPSAPNFWE | inactive
CRSEYYAF | inactive
IHKTFLTL | inactive
KTTTY | -0.2 ± 0.54
FLKLSLDIMFPYQIVYMPTT | inactive
CLFYLCRARMMFNWPSCTRG | 0.933 ± 0.22
TILWGLQTQTQNCVVWKLGR | 1.69 ± 0.12
AWSWLRANSRTQFWSRGLKP | inactive
KVFWHDVILTCG | inactive

Substance | amyloid nucleation score
GVRQVMVSSFRGNHNQKDTS | inactive
DPSPGYLLSY | inactive
AYSSHFTCRPYGFNLWSLGS | inactive
SWFSVMGNVFRMHFERRYSV | inactive
IQNSRNNKHYATFGTQFFMS | inactive
YCMWLPFMVNFH | 2.58 ± 0.057
VDVQVINLAFETFECCAFIK | 0.82 ± 0.16
AFLSLCKLDYSYANCLVIVV | inactive
CCIMLTWKRCLNKRLVTTDP | inactive
TACRFVSSRRELRIEVLTWF | -0.755 ± 1.8
AKCFFPGVNLMVGSQLFWLR | inactive
SRSMDGSVCAFRMDMSSMD | inactive
WCPTGEYRKCYNMSFARW | inactive
KILQDKKMFRGFRNGRRAGI | inactive
CRCDFFDSKAAPIGGGNNVL | inactive
LLLASVRVRFRHWPTYLRYF | inactive
RSRVRKRYWLTACP | inactive
IKYKDKGIWFLVSCGHFRLR | inactive
IFWVSRSDA | inactive
FVESIAVLKLFNTVKWITFF | inactive
LGLRHDICITDRINSGLRGS | inactive
VSNNVQVNQVMYFNTVICIV | 2.69 ± 0.063
AMCCF | inactive
PLLMDPTFPFAIRTDMVSLR | inactive

Substance | amyloid nucleation score
RLPSREIVHCVQNSGRNPVG | 0.079 ± 0.35
RLRVFVIGLPGALQIVGSLG | 0.005 ± 0.98
TLNFMWASEVLVSMSVSNQL | inactive
TNRWSIFTVVLSTMNVASFV | 0.974 ± 0.18
AREYDWQDYILVSVMYTLVW | inactive
SYLCSGWDRSWAGISCEHSE | inactive
VTCNVSSYGTMKEKVAYEGS | -0.003 ± 0.88
VFLSAVAGDYIV | inactive
SAGISYFCDILKSTYAVFAV | inactive
LKLFLRVYCIDI | 0.535 ± 0.23
IRGYFIPCGETLDEDLLFKQ | inactive
YVRSHHNMNRTMVFKTCPWQ | inactive
LCMADYVRGTWVYVPYFWMC | inactive
MSLPSSSQAYSCRWTWPRPA | inactive
YCLVV | inactive
DLKWNVRHGCISKTARGFVT | inactive
ILVFM | 0.509 ± 0.24
HVTPRKN | inactive
WVEWIWSWKNDVPLVCRASA | inactive
PLLGSIFRFWWRGDTLMYRL | inactive
PIILKIPV | inactive
NIVQYVWVDDWVFRCRCGAK | 3.15 ± 0.069
IDVKMGSYFVYHDGLFIFRV | inactive
KGAFEMRG | -0.277 ± 1.1

Substance | amyloid nucleation score
GILFYTHGRKDASD | -0.348 ± 0.5
TRFDSVVMRKFYWVGSVRGL | inactive
VYVFAQ | inactive
TMRVVFRHKTVNRIEVKVYF | -0.234 ± 0.69
TINDLSCGASRDGWMPVYS | inactive
WNDRKSYLYSAIAMKARSVY | inactive
VRWSWSMFVVYNSVES | inactive
QLNGCHWCTMLSVVFCSRGV | 2.72 ± 0.069
IMSRCKNSYASLATVSCRSL | inactive
MKVNKLRTMPCNINWQFCLP | 0.819 ± 0.11
VVKNTW | inactive
TPMIVPLMNSQVVYTLFTTK | 2.11 ± 0.076
SFKTF | inactive
CGIYTFLRLRD | inactive
FRAWYDTAMSQSLFLCRKGA | inactive
SDLASASFCGH | 0.676 ± 0.2
SVELNTKLVRYEVLSRMYRA | inactive
YCCNGYPACG | inactive
NGYFLSQGGLLSLIMHFKIV | -0.041 ± 0.77
MCVRPLPSRLGTVGLWN | inactive
RYRSVNVYWIAVLRTWSAVI | inactive
CIREKLILIMTSRSIMLLKS | inactive
RFSRTDGRLWSCKTCQ | inactive
GQCVLCMVNVLYLWAKYTNR | inactive

Substance | amyloid nucleation score
YMYELVTSRFKRNQVMCVID | inactive
FIERLARNQFLNAYSMLDCE | inactive
HSRRYILNVP | 0.935 ± 0.085
FVYDMHKHQIALRQVSSCEG | inactive
LSYVRCVRWWY | inactive
GSAECGCFASVYMNSMIKTV | inactive
TTEMWKALACPSHRTTRPCS | inactive
YHDFRMLFLWVVWSIVSIRS | inactive
SHNLSWDIGHLGIV | inactive
RLIYLWVPYCNMCRCGLLCK | inactive
FQMKCNFWKI | 1.24 ± 0.077
RQGAKVRTGGHKKQSGSSCR | inactive
IKCMNTLTDCCGMV | inactive
FFLWVYLLKSFSS | inactive
SLCWSLNGFNLLISFDFRRN | 0.785 ± 0.14
KIVFSKSLGFLVFVMRYNQW | inactive
RRDPDPTLIPG | inactive
SSYLNSVNSCLNDNVSHCCS | -0.343 ± 0.68
LVLTSPFRYSIV | inactive
DYESMTCNVSSDTVPFQQA | inactive
SGVYHRICSISLYQVSMR | inactive
